Blank lines part the entries; values can stand above or below the substance they belong to.
Legend:
[1] = molecular target: NKG2A on rhesus monkey (Macaca mulatta) NK cells (rhesus monkey (Macaca mulatta)) (UniProt Q9MZJ3); assay: FACS rhesus whole blood, animal O967
[2] = molecular target: NKG2A on rhesus monkey (Macaca mulatta) NK cells (rhesus monkey (Macaca mulatta)) (UniProt Q9MZJ3); assay: FACS rhesus whole blood, animal 31828
[3] = molecular target: NKG2A on rhesus monkey (Macaca mulatta) NK cells (rhesus monkey (Macaca mulatta)) (UniProt Q9MZJ3); assay: FACS rhesus whole blood, animal 34459
[4] = molecular target: NKG2A on rhesus monkey (Macaca mulatta) NK cells (rhesus monkey (Macaca mulatta)) (UniProt Q9MZJ3); assay: FACS rhesus whole blood, animal R00007
[5] = molecular target: NKG2A on rhesus monkey (Macaca mulatta) NK cells (rhesus monkey (Macaca mulatta)) (UniProt Q9MZJ3); assay: FACS rhesus whole blood, animal R00013
[6] = molecular target: NKG2A on rhesus monkey (Macaca mulatta) NK cells (rhesus monkey (Macaca mulatta)) (UniProt Q9MZJ3); assay: FACS rhesus whole blood, animal R00023
[7] = molecular target: NKG2A on rhesus monkey (Macaca mulatta) NK cells (rhesus monkey (Macaca mulatta)) (UniProt Q9MZJ3); assay: FACS rhesus whole blood, animal R00025
[8] = molecular target: NKG2A on rhesus monkey (Macaca mulatta) NK cells (rhesus monkey (Macaca mulatta)) (UniProt Q9MZJ3); assay: FACS rhesus whole blood, animal R00037
[9] = molecular target: NKG2A on rhesus monkey (Macaca mulatta) NK cells (rhesus monkey (Macaca mulatta)) (UniProt Q9MZJ3); assay: FACS rhesus whole blood, animal R00041
[10] = molecular target: NKG2A on rhesus monkey (Macaca mulatta) NK cells (rhesus monkey (Macaca mulatta)) (UniProt Q9MZJ3); assay: FACS rhesus whole blood, animal R00061
[11] = molecular target: NKG2A on rhesus monkey (Macaca mulatta) NK cells (rhesus monkey (Macaca mulatta)) (UniProt Q9MZJ3); assay: FACS rhesus whole blood, animal R00077
[12] = molecular target: NKG2A on rhesus monkey (Macaca mulatta) NK cells (rhesus monkey (Macaca mulatta)) (UniProt Q9MZJ3); assay: FACS rhesus whole blood, animal R00085
[13] = molecular target: NKG2A on rhesus monkey (Macaca mulatta) NK cells (rhesus monkey (Macaca mulatta)) (UniProt Q9MZJ3); assay: FACS rhesus whole blood, animal R00093
[14] = molecular target: NKG2A on rhesus monkey (Macaca mulatta) NK cells (rhesus monkey (Macaca mulatta)) (UniProt Q9MZJ3); assay: FACS rhesus whole blood, animal R00099
[15] = molecular target: NKG2A on rhesus monkey (Macaca mulatta) NK cells (rhesus monkey (Macaca mulatta)) (UniProt Q9MZJ3); assay: FACS rhesus whole blood, animal R00101
[16] = molecular target: NKG2A on rhesus monkey (Macaca mulatta) NK cells (rhesus monkey (Macaca mulatta)) (UniProt Q9MZJ3); assay: FACS rhesus whole blood, animal R99273
[17] = molecular target: NKG2A on cynomolgus monkey NK cells (cynomolgus monkey) (UniProt Q68VD2); assay: FACS cynomolgus whole blood, animal 1221
UniProt Q68VD2, sequence (Q68VD2 entry or part of it): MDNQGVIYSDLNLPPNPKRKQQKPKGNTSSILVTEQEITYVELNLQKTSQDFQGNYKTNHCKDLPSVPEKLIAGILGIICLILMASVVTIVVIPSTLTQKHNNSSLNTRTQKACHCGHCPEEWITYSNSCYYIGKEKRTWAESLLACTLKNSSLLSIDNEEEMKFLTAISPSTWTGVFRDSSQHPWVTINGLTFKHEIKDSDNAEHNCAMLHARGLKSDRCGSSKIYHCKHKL

[18] = molecular target: NKG2A on cynomolgus monkey NK cells (cynomolgus monkey) (UniProt Q68VD2); assay: FACS cynomolgus whole blood, animal M859
[19] = molecular target: NKG2A on cynomolgus monkey NK cells (cynomolgus monkey) (UniProt Q68VD2); assay: FACS cynomolgus whole blood, animal R390
[20] = molecular target: NKG2A on cynomolgus monkey NK cells (cynomolgus monkey) (UniProt Q68VD2); assay: FACS cynomolgus whole blood, animal T270
[21] = molecular target: NKG2A on cynomolgus monkey NK cells (cynomolgus monkey) (UniProt Q68VD2); assay: FACS cynomolgus whole blood, animal T788
[22] = molecular target: NKG2A on cynomolgus monkey NK cells (cynomolgus monkey) (UniProt Q68VD2); assay: FACS cynomolgus whole blood, animal AK565
[23] = molecular target: NKG2A on cynomolgus monkey NK cells (cynomolgus monkey) (UniProt Q68VD2); assay: FACS cynomolgus whole blood, animal AK729
[24] = molecular target: NKG2A on cynomolgus monkey NK cells (cynomolgus monkey) (UniProt Q68VD2); assay: FACS cynomolgus whole blood, animal AL210
[25] = molecular target: NKG2A on cynomolgus monkey NK cells (cynomolgus monkey) (UniProt Q68VD2); assay: FACS cynomolgus whole blood, animal AL303
[26] = molecular target: NKG2A on cynomolgus monkey NK cells (cynomolgus monkey) (UniProt Q68VD2); assay: FACS cynomolgus whole blood, animal AL389
[27] = molecular target: NKG2A on rhesus monkey (Macaca mulatta) NK cells (rhesus monkey (Macaca mulatta)) (UniProt Q9MZJ3); assay: FACS rhesus whole blood, mean over animals
[28] = molecular target: NKG2A on rhesus monkey (Macaca mulatta) NK cells (rhesus monkey (Macaca mulatta)) (UniProt Q9MZJ3); assay: FACS rhesus whole blood, animal R00073 (5.6 kg)
[29] = molecular target: NKG2A on rhesus monkey (Macaca mulatta) NK cells (rhesus monkey (Macaca mulatta)) (UniProt Q9MZJ3); assay: FACS rhesus whole blood, animal R00073 (6.1 kg)
[30] = molecular target: NKG2A on cynomolgus monkey NK cells (cynomolgus monkey) (UniProt Q68VD2); assay: FACS cynomolgus whole blood, mean of 10 animals
[31] = molecular target: NKG2A on rhesus monkey (Macaca mulatta) NK cells (rhesus monkey (Macaca mulatta)) (UniProt Q9MZJ3); assay: FACS rhesus whole blood, animal R00055

UniProt Q9MZJ3, sequence (Q9MZJ3 whole entry): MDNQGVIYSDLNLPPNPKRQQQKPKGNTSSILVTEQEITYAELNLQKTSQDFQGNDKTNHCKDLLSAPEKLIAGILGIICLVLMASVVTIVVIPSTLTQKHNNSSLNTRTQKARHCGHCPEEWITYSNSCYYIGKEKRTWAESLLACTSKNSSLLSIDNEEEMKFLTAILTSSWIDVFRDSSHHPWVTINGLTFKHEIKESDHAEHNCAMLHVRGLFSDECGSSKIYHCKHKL

- % NK+ [1]: 84.8%
- MFI [1]: 62.3
- MFI NK+ [1]: 73.4
- % NK+ [2]: 99.8%
- MFI [2]: 101
- MFI NK+ [2]: 101
- % NK+ [3]: 96.2%
- MFI [3]: 63.8
- MFI NK+ [3]: 66.3
- % NK+ [4]: 99.6%
- MFI [4]: 34.9
- MFI NK+ [4]: 35
- % NK+ [5]: 97.8%
- MFI [5]: 38.8
- MFI NK+ [5]: 39.7
- % NK+ [6]: 96.4%
- MFI [6]: 34
- MFI NK+ [6]: 35.3
- % NK+ [7]: 97.3%
- MFI [7]: 30
- MFI NK+ [7]: 30.9
- % NK+ [8]: 96.9%
- MFI [8]: 26.7
- MFI NK+ [8]: 27.5
- % NK+ [9]: 89.6%
- MFI [9]: 33.1
- MFI NK+ [9]: 36.9
- % NK+ [10]: 40.7%
- MFI [10]: 1.6
- MFI NK+ [10]: 2.4
- % NK+ [11]: 97.1%
- MFI [11]: 30.4
- MFI NK+ [11]: 31.3
- % NK+ [12]: 91.9%
- MFI [12]: 68.4
- MFI NK+ [12]: 74.4
- % NK+ [13]: 97.9%
- MFI [13]: 81.9
- MFI NK+ [13]: 83.6
- % NK+ [14]: 97.6%
- MFI [14]: 31.1
- MFI NK+ [14]: 31.8
- % NK+ [15]: 98.7%
- MFI [15]: 37.1
- MFI NK+ [15]: 37.6
- % NK+ [16]: 98%
- MFI [16]: 32.7
- MFI NK+ [16]: 33.4
- % NK+ [17]: 96.7%
- MFI [17]: 105
- MFI NK+ [17]: 109
- % NK+ [18]: 95.1%
- MFI [18]: 144
- MFI NK+ [18]: 152
- % NK+ [19]: 99%
- MFI [19]: 32.3
- MFI NK+ [19]: 32.6
- % NK+ [20]: 97.7%
- MFI [20]: 113
- MFI NK+ [20]: 116
- % NK+ [21]: 97%
- MFI [21]: 123
- MFI NK+ [21]: 126
- % NK+ [22]: 90.7%
- MFI [22]: 28.2
- MFI NK+ [22]: 31
- % NK+ [23]: 99.4%
- MFI [23]: 37.4
- MFI NK+ [23]: 37.7
- % NK+ [24]: 92.7%
- MFI [24]: 126
- MFI NK+ [24]: 136
- % NK+ [25]: 99.1%
- MFI [25]: 129
- MFI NK+ [25]: 130
- % NK+ [26]: 95.5%
- MFI [26]: 223
- MFI NK+ [26]: 234
- % NK+ (Mean) [27]: 93.2%
- MFI (Mean) [27]: 29.6
- MFI NK+ (Mean) [27]: 30.6
- % NK+ [28]: 99.1%
- MFI [28]: 31.6
- MFI NK+ [28]: 31.9
- % NK+ [29]: 98%
- MFI [29]: 31.9
- MFI NK+ [29]: 32.6
- % NK+ (Mean) [30]: 96.3%
- MFI (Mean) [30]: 106
- MFI NK+ (Mean) [30]: 110
Substance: Z199 anti-NKG2A monoclonal antibody

- % NK+ [1]: 0.5%
- MFI [1]: 0.7
- % NK+ [2]: 0.5%
- MFI [2]: 0.7
- % NK+ [3]: 1.2%
- MFI [3]: 0.7
- % NK+ [4]: 0.7%
- MFI [4]: 0.4
- % NK+ [5]: 0.2%
- MFI [5]: 0.6
- % NK+ [6]: 0.6%
- MFI [6]: 0.3
- % NK+ [7]: 0.4%
- MFI [7]: 0.4
- % NK+ [8]: 0.3%
- MFI [8]: 0.5
- % NK+ [9]: 0.3%
- MFI [9]: 0.4
- % NK+ [31]: 0.9%
- MFI [31]: 0.6
- % NK+ [10]: 0.2%
- MFI [10]: 0.6
- % NK+ [11]: 0.5%
- MFI [11]: 0.4
- % NK+ [12]: 0.3%
- MFI [12]: 0.7
- % NK+ [13]: 0.4%
- MFI [13]: 0.6
- % NK+ [14]: 0.3%
- MFI [14]: 0.5
- % NK+ [15]: 0.4%
- MFI [15]: 0.5
- % NK+ [16]: 0.6%
- MFI [16]: 0.4
- % NK+ [17]: 1.3%
- MFI [17]: 0.8
- % NK+ [18]: 0.2%
- MFI [18]: 0.6
- % NK+ [19]: 0.2%
- MFI [19]: 0.5
- % NK+ [20]: 0.2%
- MFI [20]: 0.6
- % NK+ [21]: 0.4%
- MFI [21]: 0.6
- % NK+ [22]: 0.3%
- MFI [22]: 0.6
- % NK+ [23]: 0.3%
- MFI [23]: 0.6
- % NK+ [24]: 0.3%
- MFI [24]: 0.7
- % NK+ [25]: 0.14%
- MFI [25]: 0.7
- % NK+ [26]: 0.4%
- MFI [26]: 0.8
- % NK+ (Mean) [27]: 0.5%
- MFI (Mean) [27]: 0.5
- % NK+ [28]: 0.39%
- MFI [28]: 0.4
- % NK+ [29]: 0.3%
- MFI [29]: 0.3
- % NK+ (Mean) [30]: 0.4%
- MFI (Mean) [30]: 0.7
Substance: mouse IgG2b isotype control (antibody)

— patent US20090208416A1
